Key:
CAR on CHO-CAR cells = CAR on CHO-CAR cells (UniProt P78310); assay: flow cytometry on cells; CHO-CAR cells with serial dilutions of knob protein (0.0001-100 ug/10^5 cells) for 1 h on ice, washed, then stained for CAR with anti-CAR (RmcB) and a labelled secondary antibody; IC50 by non-linear regression; apparent
[1] = molecular target: human CD46 protein (His tag) (human) (UniProt P15529); assay: SPR; BIAcore 3000; DSG2-Fc, CAR-Fc and CD46-His (approximately 500 RU) coupled to a CM5 chip; knob protein injected (178 uM, 5x 1:3 dilutions; single-cycle kinetics from 200 uM); 30 uL/min, PBS, 25 °C; equilibrium KD assuming 1:1 Langmuir binding
[2] = molecular target: Human desmoglein-2 Fc chimera protein (DSG2) (human) (UniProt Q14126); assay: as above
[3] = molecular target: human CXADR Fc chimera protein (CAR) (human) (UniProt P78310); assay: as above
human CXADR Fc chimera protein (CAR) (human), sequence (P78310 20-237, change not shown): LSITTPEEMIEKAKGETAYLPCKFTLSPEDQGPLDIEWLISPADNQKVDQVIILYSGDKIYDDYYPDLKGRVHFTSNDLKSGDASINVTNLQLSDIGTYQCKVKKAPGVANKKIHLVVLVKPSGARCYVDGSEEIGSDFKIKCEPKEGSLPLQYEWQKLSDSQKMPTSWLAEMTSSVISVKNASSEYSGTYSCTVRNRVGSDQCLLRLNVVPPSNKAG

Human desmoglein-2 Fc chimera protein (DSG2) (human), sequence (Q14126 50-609, change not shown): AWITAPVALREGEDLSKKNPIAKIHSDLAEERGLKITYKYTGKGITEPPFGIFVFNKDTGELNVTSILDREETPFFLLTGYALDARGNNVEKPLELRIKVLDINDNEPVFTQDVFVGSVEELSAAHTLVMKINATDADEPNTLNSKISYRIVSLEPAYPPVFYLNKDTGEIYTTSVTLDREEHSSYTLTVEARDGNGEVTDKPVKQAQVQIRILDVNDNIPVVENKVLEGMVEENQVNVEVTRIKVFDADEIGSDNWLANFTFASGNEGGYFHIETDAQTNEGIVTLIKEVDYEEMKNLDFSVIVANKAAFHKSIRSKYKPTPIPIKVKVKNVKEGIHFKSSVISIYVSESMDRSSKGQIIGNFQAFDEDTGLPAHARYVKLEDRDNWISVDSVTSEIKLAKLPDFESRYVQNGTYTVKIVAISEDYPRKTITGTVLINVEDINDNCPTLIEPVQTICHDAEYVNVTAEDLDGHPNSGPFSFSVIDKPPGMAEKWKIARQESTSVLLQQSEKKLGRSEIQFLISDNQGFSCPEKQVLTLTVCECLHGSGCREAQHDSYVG
CAR on CHO-CAR cells, sequence (P78310 20-365): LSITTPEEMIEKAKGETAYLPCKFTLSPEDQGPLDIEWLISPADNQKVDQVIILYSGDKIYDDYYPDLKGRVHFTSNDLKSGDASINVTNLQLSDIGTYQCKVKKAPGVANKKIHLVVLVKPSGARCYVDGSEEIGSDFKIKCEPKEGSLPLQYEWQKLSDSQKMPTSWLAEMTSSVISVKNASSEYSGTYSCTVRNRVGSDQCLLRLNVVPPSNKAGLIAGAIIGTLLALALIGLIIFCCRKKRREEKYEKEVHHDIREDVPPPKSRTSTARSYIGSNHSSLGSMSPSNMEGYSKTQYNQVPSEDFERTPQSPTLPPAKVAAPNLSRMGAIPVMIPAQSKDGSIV
human CD46 protein (His tag) (human), sequence (P15529 35-343): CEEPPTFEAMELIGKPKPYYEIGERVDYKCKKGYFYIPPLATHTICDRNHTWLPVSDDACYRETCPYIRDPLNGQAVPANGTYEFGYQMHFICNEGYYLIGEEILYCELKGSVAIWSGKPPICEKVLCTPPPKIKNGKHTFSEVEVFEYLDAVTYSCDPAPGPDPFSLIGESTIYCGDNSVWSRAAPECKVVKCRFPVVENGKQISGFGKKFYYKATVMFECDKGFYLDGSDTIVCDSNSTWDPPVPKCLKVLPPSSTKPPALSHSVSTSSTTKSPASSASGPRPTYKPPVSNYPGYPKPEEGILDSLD

HAdV-D10 fiber knob protein (domain or fragment)
fold lower apparent affinity than HAdV-C5K (by IC50) (CAR on CHO-CAR cells): 16.5 fold
Kd [1]: 20 µM
Kd [2]: 125 µM
Kd [3]: 0.44 µM

— PMC8971729
